Reference: PMC4067145

Assays:
[1] = target: T1, U1A (human, UniProt P09012 1-282); assay: fluorescence titration
[2] = target: T2, U2B″ (human, UniProt P08579 1-225); assay: fluorescence titration
[3] = target: U2B″;U2A′ LRR domain (human;human, UniProt P08579;P09661 1-225;1-180, |); assay: fluorescence titration
[4] = target: T3, U1A;U2A′ LRR domain (human;human, UniProt P09012;P09661 1-282;1-180, |); assay: fluorescence titration
[5] = target: T2, U2B″; assay: ITC
[6] = target: T3, U1A;U2A′ LRR domain; assay: ITC
[7] = target: T1, U1A; assay: ITC
[8] = target: T3, U1A;U2A′ LRR domain; assay: fluorescence titration; remark: listed apart in the source
[9] = target: T1, U1A; assay: ITC; remark: listed apart in the source
[10] = target: T2, U2B″; assay: ITC; remark: listed apart in the source

T2 sequence (P08579 whole entry, the tested form may be a part): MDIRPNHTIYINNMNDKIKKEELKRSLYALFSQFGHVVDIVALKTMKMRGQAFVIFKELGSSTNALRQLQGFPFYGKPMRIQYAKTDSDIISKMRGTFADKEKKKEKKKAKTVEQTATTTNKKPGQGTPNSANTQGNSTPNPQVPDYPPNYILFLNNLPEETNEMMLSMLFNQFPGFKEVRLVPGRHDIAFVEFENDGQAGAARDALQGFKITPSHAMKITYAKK
T3 sequence (P09012 whole entry, chain 1 of 2, the tested form may be a part): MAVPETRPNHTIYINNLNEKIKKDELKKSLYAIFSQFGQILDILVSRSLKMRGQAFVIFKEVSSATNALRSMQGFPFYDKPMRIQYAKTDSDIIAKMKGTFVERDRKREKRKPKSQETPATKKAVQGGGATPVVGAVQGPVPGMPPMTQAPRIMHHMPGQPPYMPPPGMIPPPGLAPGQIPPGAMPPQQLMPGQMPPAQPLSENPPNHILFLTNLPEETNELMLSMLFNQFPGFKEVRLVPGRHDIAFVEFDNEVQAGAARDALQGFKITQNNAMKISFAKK
T3 sequence (P09661 1-180, chain 2 of 2): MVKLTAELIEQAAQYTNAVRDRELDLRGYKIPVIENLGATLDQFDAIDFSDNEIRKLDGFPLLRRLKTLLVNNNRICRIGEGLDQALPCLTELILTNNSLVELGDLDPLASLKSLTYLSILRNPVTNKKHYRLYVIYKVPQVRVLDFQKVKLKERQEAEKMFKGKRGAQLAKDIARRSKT
T1 sequence (P09012 whole entry): as the sequence (P09012 whole entry, chain 1 of 2, the tested form may be a part) above
U2B″;U2A′ LRR domain, sequence (P08579 whole entry, chain 1 of 2, the tested form may be a part): as the sequence (P08579 whole entry, the tested form may be a part) above
U2B″;U2A′ LRR domain, sequence (P09661 1-180, chain 2 of 2): as the sequence (P09661 1-180, chain 2 of 2) above

Row | Binder | Kd [1] [nM] | Kd [2] [nM] | binding signal [3] | binding signal [4] | Kd [5] [nM] | binding signal [6] | Kd [7] [nM] | binding signal [8] | Kd [9] [nM] | Kd [10] [nM]
1 | GGGCCCGGCAUUGCACCUCGCCGGGUCC (structured_RNA) [FAM-SLII (U1 snRNA stemloop II)] | 0.33 | 15 | 15.8 ± 1.6 alpha (linkage parameter, fold) | 7.3 ± 1.3 alpha (linkage parameter, fold) |  |  |  |  |  | 
2 | GGAGUUUUCCAGGACGUAUUGCAGUACCUCGUCCUGG (structured_RNA) [SLIV ITC construct] |  |  |  |  | 2.3 | 34 ± 17 alpha (linkage parameter, fold) | 100 |  |  | 
3 | GGGCCCGGUAUUGCAGUACCGCCGGGUCC (structured_RNA) [FAM-SLIV (U2 snRNA stemloop IV)] | 58 | 17 | 139 ± 49 alpha (linkage parameter, fold) |  |  |  |  | 89 ± 11 alpha (linkage parameter, fold) |  | 
4 | GGGCACAUUGCACCUCGUGUCCAGACUUCGGUC (structured_RNA) [SLII ITC construct] |  |  |  |  |  | 1.4 ± 7.9 alpha (linkage parameter, fold) |  |  | < 7 | 92
